Measurements: US10962528B2, “Blue fluorescent protein monomers and uses thereof” (WISYS TECHNOLOGY FOUNDATION, INC., priority 2015, dated 2021)

Assays:
[1] = Photobleaching / photo-stability studies; assay type: physicochemical
Experimental: FIGS. 11C-11D (C) Titration of apo-SFP (20 uM) with BV IXα measured at 675 nm with λex=375 nm (green) and 630 nm (red). (D) Photo-bleaching kinetics of Sandercyanin and free-biliverdin (BV).
(§1) All experiments were performed with purified SFP samples (apo and holo forms) at pH 7.5 and room temperature. UV-Visible absorbance spectra of native and recombinant SFP were recorded from 800 to 200 nm with ultraspec 2100 pro spectrophotometer from Amersham Biosciences. CD spectra were measured on JASCO J-815 Spectropolarimeter. Steady state fluorescence, excitation, binding and photobleaching studies were monitored on Horiba Jobin Yvon Fluoromax-4 fluorimeter. Data analysis were done using Origin6 and Origin8 software. Hydrogen was exchanged with Deuterium by increasing concentrations of D2O to a standard protein concentration. Deuteriated proteins were prepared in the same buffer, incubated for 15 minutes, and monitored for spectral properties.

[2] = Fluorescence of free biliverdin in different solvent conditions; assay type: physicochemical; settings: increased hydrophobicity of the medium
Text: FIG. 11F Effect of hydrophobicity of solvent on fluorescence spectra of biliverdin monitored at excitation wavelengths of (left) 375 nm and (right) 600 nm. Labels are biliverdin in DMSO 1150, biliverdin in acetone 1152, biliverdin in ethanol 1154, biliverdin in benzene 1156, and biliverdin in toluene 1158.
FIG. 11G Effect of viscosity of solvent (PEG 400) on fluorescence spectra of biliverdin monitored at excitation wavelengths of (left) 375 nm and (right) 600 nm. Labels are 0% PEG400 1160, 5% PEG400 1162, 10% PEG400 1164, and 15% PEG400 1166.
We performed experiments with free biliverdin in different solvents conditions, to understand the molecular basis of the observed fluorescent properties of Sandercyanin-BV complex. […] A similar trend was observed on increasing the viscosity of medium with increased polyethylene glycol and changing the pH of medium to pH 8.8-9.5.

apoSFP = assay: Binding of apoSFP with other tetrapyrroles monitored by fluorescence; parameters: species or system Sander vitreus; settings: excitation at 375 nm and 630 nm
Text: FIG. 11E Binding of apoSFP with other tetrapyrroles monitored by fluorescence on excitation at (left) 375 nm and (right) 630 nm.
To examine the specificity of Sandercyanin to bilverdin IXa, we tested other BV-like tetrapyrrol compounds: hemin, bilirubin, and esterified BV derivatives.

[3] = Steady state fluorescence spectra and quantum yield; assay type: physicochemical; settings: for brightness relative to L135E monoSFP: glycine loop extension; for Quantum yield / Ex/Em1, emission / Ex/Em1, excitation: in complex with biliverdin
Experimental: as §1
Characterization of monoSFP Variants—MonoSFP variants were characterized by size-exclusion chromatography during purification of the proteins. We further characterized the spectral properties and binding-efficiencies of a few of these monoSFPs (Tables 2 and 4), and found them to be similar to wild-type SFP (FIG. 2, FIG. 3, Table 4). They have far-red to near infra-red fluorescence with large Stokes shift. […] To test this, we performed detergent (Triton X-100) assays with the monoSFPs and measured absorbance and fluorescence spectra. Further, we made attempts to extend one of the loops which encloses biliverdin in the centre of the protein. Two mutants, FH88insGG and VP95insGG, were extended with glycine residues at the 88th and 95th positions in the amino acid chain of L135E monoSFP mutant. One hypothesis was that extension would prevent photon loss due to solvent exposure of the ligand and enhance the quantum efficiency.

[4] = Biliverdin binding of SFP and monomeric variants (fluorescence titration, UV-visible absorbance)
Experimental: as §1
All SFP variants were expressed using E. coli BL21*(DE3) cells. […] Thus, refolded purified SFP was checked using an analytical gel filtration column for oligomerization state and biliverdin (BV) binding by UV-visible absorbance and fluorescence spectroscopy (FIGS. 1A-1D).
Characterization of monoSFP Variants—MonoSFP variants were characterized by size-exclusion chromatography during purification of the proteins. […] They have far-red to near infra-red fluorescence with large Stokes shift. […] To test this, we performed detergent (Triton X-100) assays with the monoSFPs and measured absorbance and fluorescence spectra. […]

[5] = UV-Visible absorbance spectra; assay type: physicochemical
Experimental: as §1, with “All experiments were performed with purified SFP samples (apo and holo forms) at pH 7.5 and room temperature.” left out

[6] = excitation at 380 nm and 630 nm, Yu et al. 2008; cited from earlier work

C=CC1=C(C)/C(=C/C2=NC(=C\c3[nH]c(/C=C4\NC(=O)C(C)=C4C=C)c(C)c3CCC(=O)O)/C(CCC(=O)O)=C2C)NC1=O [Biliverdin, Biliverdin IXα, reference compound]
bleaching of free form relative to complex with Sandercyanin [1]: bleaches faster
far red fluorescence of free biliverdin [2]: enhanced far red fluorescence

C=CC1=C(C)c2cc3[n-]c(cc4[n-]c(cc5nc(cc1n2)C(C)=C5C=C)c(C)c4CCC(=O)O)c(CCC(=O)O)c3C.[Cl-].[Fe+3] [hemin]
binding and fluorescence with Sandercyanin (apoSFP): does not show binding and fluorescence

B1: SFP-VP95insGG: L135E monoSFP extended with glycine residues at position 95, SEQ ID NO:6 (protein)
chain: MFIKPGRCPKPAVQEDFDAARYLGVWYDIQRLPNKFQKGECATATYSLSPGVGFSVFNRERLANGTIKSVIGSAIAEDPCEPAKLQFFHENAAPGGVPYWVLSTDYDNYALVYSCINSFEGASHAAYASIVSRQPTLPEETIKKLQGTMSSFGVGVDTLLTTNQDAAYCSAMNQ
brightness relative to L135E monoSFP [3]: did not show significantly increased brightness
Quantum yield [3]: 0.003
Ex/Em1, emission ([3]; UV/blue excitation): 657 nm
Ex/Em1, excitation ([3]; UV/blue excitation): 380 nm
Ex/Em1, emission ([3]; red excitation): 653 nm
Ex/Em1, excitation ([3]; red excitation): 570 nm
binding to biliverdin [4]: retained binding to biliverdin

B2: Wild-type SFP: Sandercyanin fluorescent protein from walleye Sander vitreus mucus, biliverdin-binding lipocalin tetramer; SEQ ID NO:1 (recombinant SEQ ID NO:31) (protein, listed as Sander vitreus)
chain: MNAIQVISLTLLSVLAAKAMFIKPGRCPKPAVQEDFDAARYLGVWYDIQRLPNKFQKGECATATYSLSPGVGFSVFNRERLANGTIKSVIGSAIAEDPCEPAKLQFFHENAAPVPYWVLSTDYDNYALVYSCINLGASHAAYASIVSRQPTLPEETIKKLQGTMSSFGVGVDTLLTTNQDAAYCSAMAQ
modifications: biliverdin chromophore
Molar extinction coefficient at 375 nm ([5]; phosphate buffer of pH 7.4, 375 nm): 21,000 M^−1 cm^−1
Molar extinction coefficient at 630 nm ([5]; phosphate buffer of pH 7.4, 630 nm): 13,500 M^−1 cm^−1
photo-stability of fluorescence ([1]; overnight exposure with UV or red light): does not bleach significantly
bleaching of fluorescence ([1]; walleye mucous cells and solution, several hours of excitation and emission): do not bleach
emission maxima [6]: 678 nm
excitation maxima [3]: 375 nm
Quantum yield [3]: 0.016
Ex/Em1, emission ([3]; UV/blue excitation): 675 nm
Ex/Em1, excitation ([3]; UV/blue excitation): 375 nm
Ex/Em1, emission ([3]; red excitation): 675 nm
Ex/Em1, excitation ([3]; red excitation): 630 nm
fluorescence intensity with D2O ([3]; increasing concentrations of D2O, no changes in the absorbance): increased fluorescence intensity

B3: SFP-V71E: monomeric SFP variant V71E, SEQ ID NO:2 (protein)
chain: FIKPGRCPKPAVQEDFDAARYLGVWYDIQRLPNKFQKGECATATYSLSPGEGFSVFNRERLANGTIKSVIGSAIAEDPCEPAKLQFFHENAAPVPYWVLSTDYDNYALVYSCINLGASHAAYASIVSRQPTLPEETIKKLQGTMSSFGVGVDTLLTTNQDAAYCSAMNQ
Quantum yield [3]: 0.003
Ex/Em1, emission ([3]; UV/blue excitation): 670 nm
Ex/Em1, excitation ([3]; UV/blue excitation): 380 nm
Ex/Em1, emission ([3]; red excitation): 660 nm
Ex/Em1, excitation ([3]; red excitation): 600 nm

B4: SFP-A137E: monomeric SFP variant A137E, SEQ ID NO:4 (protein)
chain: FIKPGRCPKPAVQEDFDAARYLGVWYDIQRLPNKFQKGECATATYSLSPGVGFSVFNRERLANGTIKSVIGSAIAEDPCEPAKLQFFHENAAPVPYWVLSTDYDNYALVYSCINLGESHAAYASIVSRQPTLPEETIKKLQGTMSSFGVGVDTLLTTNQDAAYCSAMNQ
Quantum yield [3]: 0.003
Ex/Em1, emission ([3]; UV/blue excitation): 663 nm
Ex/Em1, excitation ([3]; UV/blue excitation): 380 nm
Ex/Em1, emission ([3]; red excitation): 653 nm
Ex/Em1, excitation ([3]; red excitation): 580 nm

B5: SFP-L135E: monomeric SFP variant L135E, SEQ ID NO:3 (protein)
chain: FIKPGRCPKPAVQEDFDAARYLGVWYDIQRLPNKFQKGECATATYSLSPGVGFSVFNRERLANGTIKSVIGSAIAEDPCEPAKLQFFHENAAPVPYWVLSTDYDNYALVYSCINEGASHAAYASIVSRQPTLPEETIKKLQGTMSSFGVGVDTLLTTNQDAAYCSAMNQ
Quantum yield [3]: 0.025
Ex/Em1, emission ([3]; UV/blue excitation): 682 nm
Ex/Em1, excitation ([3]; UV/blue excitation): 380 nm
Ex/Em1, emission ([3]; red excitation): 676 nm
Ex/Em1, excitation ([3]; red excitation): 600 nm

B6: SFP-FH88insGG: L135E monoSFP extended with glycine residues at position 88, SEQ ID NO:5 (protein)
chain: MFIKPGRCPKPAVQEDFDAARYLGVWYDIQRLPNKFQKGECATATYSLSPGVGFSVFNRERLANGTIKSVIGSAIAEDPCEPAKLQFGGFHENAAPVPYWVLSTDYDNYALVYSCINEGASHAAYASIVSRQPTLPEETIKKLQGTMSSFGVGVDTLLTTNQDAAYCSAMNQ
brightness relative to L135E monoSFP [3]: did not show significantly increased brightness
Quantum yield [3]: 0.002
Ex/Em1, emission ([3]; UV/blue excitation): 663 nm
Ex/Em1, excitation ([3]; UV/blue excitation): 380 nm
Ex/Em1, emission ([3]; red excitation): 653 nm
Ex/Em1, excitation ([3]; red excitation): 570 nm
binding to biliverdin [4]: retained binding to biliverdin
